Results as given in patent US12551583B2, “Radiolabeled ligands for targeted PET/SPECT imaging and methods of their use” (MEMORIAL SLOAN KETTERING CANCER CENTER, priority 2016, dated 2026).

Columns and labels:
[1] = tested on: 4T1 orthotopic tumor-bearing BALB/c mice; assay: in vivo; details: mouse
Procedure: (§1) 4T1 orthotopic BALB/c mouse model. The cells were removed from the flasks, concentrated, and resuspended in minimal media for cell counting. The cells were then diluted to contain approximately 1 million cells in 30 μL of media (for orthotopic allografts). Following an MSKCC Institutional Animal Care and Use Committee approved protocol, 8-10 week old BALB/c mice (Charles River Laboratories, Wilmington, MA) were surgically implanted with one million 4T1 cancer cells into the first or the last mammary fat pad of the right side of the animal using aseptic surgical techniques and sterile staple closures while the mice were under anesthetic. Additionally, mice were given injections of meloxicam (24 h pain killer) in the scruff and bupivacaine intradermally prior to surgical incisions. One day post surgery, the mice were again given meloxicam and checked to ensure that the closure was healing. Two and three days post surgery, the mice were checked to ensure that the animals were healthy and recovering well from the surgery. Five to seven days post surgery, the staples were removed. Five to nine days post surgery, the mice were injected with 50-75 μCi (0.9-0.4 nmol) of the respective radiopharmaceutical for in vivo biodistribution or 500-600 μCi (9-11 nmol) for in vivo imaging. The mice receiving ^64Cu-NOTA-pHLIP were sacrificed at 1, 2, 4, 12, 24, 36, and 48 h; the mice receiving [^18F]—AlF-NOTA-pHLIP were sacrificed at 0.5, 1, 2, 4, 6 and 8 h. The 4T1 tumors in this study were purposely used 5-9 days after inoculation to ensure lower tumoral pH. Animal models. Animal studies were conducted according to MSKCC IACUC-approved animal protocol. 4T1 (orthotopic breast cancer allografts of 1×10^6 cells surgically implanted in the mammary fat pad) and B16-F10 (orthotopic melanoma allografts of 1×10^5 cells injected intradermally on the shoulder) tumors were orthotopically inoculated in media in female BALB/c and C57Bl/6 mice (Charles River Laboratories (CRL)), respectively. Additionally, PC3 (3×10^6 cells) or LNCaP (3-6×10^6 cells) tumors were subcutaneously xenografted on the shoulder of athymic nude male mice (CRL). Mice were used once tumor volumes were approximately 90-300 mm^3. In vivo animal PET imaging and biodistribution. Mice were injected with radiolabeled NOTA-pHLIP derivatives i.v. (500-700 μCi/mouse for PET or SPECT imaging studies and 25-100 μCi/mouse for biodistribution studies). All injections were less than 200 μL with <10% EtOH in sterile PBS. PET images were obtained with the mice under anesthesia in an Inveon PET-CT or microPET Focus 120 (Siemens) at 0.5-48 h p.i. All images were analyzed using ASIPro VM (Concorde Microsystems). SPECT images were obtained with the mice under anesthesia in a NanoSPECT/CT Plus at 4-24 h p.i. All SPECT images were reconstructed using HiSPECT and analyzed using InVivoScope. Dissections for ex vivo biodistribution were performed on mice after CO2 asphyxiation or cervical dislocation while anesthetized at reported time points. Weight of the syringe prior to injection and after injection was used to determine the mass of injectate. Activity of the syringe prior to injection and after injection was used to determine the percent of injectate administered. The mass injected was corrected by the percent of radioactivity injected. Four to five aliquots (10 μL) were weighed and counted as internal standards for each study. All of the collected organs were counted using an automatic gamma counter (Wizard 3″, PerkinElmer, Waltham, MA). The total injected dose was found as the mass injected dose×fraction radioactivity injected×internal standard average counts/g. The percent injected dose (% ID) was determined as the counts for the tissue×100/total injected dose. The % ID/g was calculated as the % ID/tissue weight. The average and standard deviation of the % ID and % ID/g was determined using normal methods (n−1) for each set of mice.

tumor = details: in vivo; cited from earlier work
in vivo = details: female, BALB/c, mouse, iv, 50 uCi, total radioactivity, 4T1 tumoral uptake
Procedure: as §1

[2] = tested on: PC3 tumor-bearing male nude mice; details: mouse, in vivo
Procedure: (§2) PC3 shoulder nude mouse xenografts. The cells were removed from the flasks, concentrated, and resuspended in minimal media for cell counting. The cells were then diluted to contain approximately 3 million cells in 150 μL of 1:1 media and matrigel (for shoulder xenografts). Following an MSKCC Institutional Animal Care and Use Committee approved protocol, 150 μL of the cell suspension was injected subcutaneously in 6-9 week old nude male mice (CRL). Mice were used in studies at 3 weeks post inoculation. The mice were injected with 50-75 μCi (0.9-0.4 nmol) of the respective radiopharmaceutical for in vivo biodistribution or 500-600 μCi (9-11 nmol) for in vivo imaging. […]
(§3) In vivo animal PET imaging and biodistribution. […] All images were analyzed using ASIPro VM (Concorde Microsystems). […] All SPECT images were reconstructed using HiSPECT and analyzed using InVivoScope. […] The mass injected was corrected by the percent of radioactivity injected. Four to five aliquots (10 μL) were weighed and counted as internal standards for each study. All of the collected organs were counted using an automatic gamma counter (Wizard 3″, PerkinElmer, Waltham, MA). The total injected dose was found as the mass injected dose×fraction radioactivity injected×internal standard average counts/g. The percent injected dose (% ID) was determined as the counts for the tissue×100/total injected dose. […]

[3] = tested on: LNCaP tumor-bearing male nude mice; details: mouse, in vivo
Procedure: as §2, with “LNCaP shoulder” for “PC3 shoulder”, “approximately 3-6” for “approximately 3”, “matrigel (or” for “matrigel (for”, “in 6-8” for “in 6-9”, “at 3-8” for “at 3”
as §3

For `CC(C)C[C@@H](NC(=O)[C@@H](CCC(=O)O)NC(=O)[C@@H](CC(C)C)NC(=O)[C@@H](CC(C)C)NC(=O)[C@@H](CC(C)C)NC(=O)[C@H](NC(=O)[C@@H](CCC(=O)O)NC(=O)[C@H](NC(=O)[C@H]1CCCN1C(=O)[C@@H](Cc1ccccc1)NC(=O)[C@@H](CC(C)C)NC(=O)[C@@H](Cc1c[nH]c2ccccc12)NC(=O)[C@@H](CCC(=O)O)NC(=O)[C@@H](CC(C)C)NC(=O)[C@@H](Cc1ccc(O)cc1)NC(=O)[C@@H](CCCNC(=N)N)NC(=O)[C@@H](C)NC(=O)[C@@H](Cc1c[nH]c2ccccc12)NC(=O)[C@H]1CCCN1C(=O)[C@@H](CC(N)=O)NC(=O)[C@@H](CCC(N)=O)NC(=O)[C@@H](CCC(=O)O)NC(=O)[C@@H](CCC(=O)O)NC(=O)[C@@H](CS)NC(=O)[C@@H](C)NC(=S)Nc1ccc(CC2CN(CC(=O)O)CCN(CC(=O)O)CCN2CC(=O)O)cc1)[C@H](C)O)[C@H](C)O)C(=O)O` (single isomer, unassigned) [^64Cu-NOTA-Var7, metal not drawn], the kidneys-to-large intestine ratio [1] was 0.32±0.07, the “biodistribution, Blood” value ([1]; iv, 4 h) was 0.833 ± 0.068 % ID/g and the “biodistribution, Bone” value ([1]; iv, 4 h) was 0.229 ± 0.093 % ID/g. For the same compound, the “biodistribution, Brain” value ([1]; iv, 4 h) was 0.042 ± 0.004 % ID/g, the “biodistribution, Heart” value ([1]; iv, 4 h) was 0.35 ± 0.04 % ID/g and the “biodistribution, Kidneys” value ([1]; iv, 4 h) was 6.790 ± 0.461 % ID/g. The “biodistribution, L. intestine” value ([1]; iv, 4 h) was 7.78 ± 0.61 % ID/g, the “biodistribution, Liver” value ([1]; iv, 4 h) was 0.739 ± 0.041 % ID/g and the “biodistribution, Lungs” value ([1]; iv, 4 h) was 0.996 ± 0.066 % ID/g. For the same compound, the “biodistribution, Muscle” value ([1]; iv, 4 h) was 0.118 ± 0.025 % ID/g, the “biodistribution, Pancreas” value ([1]; iv, 4 h) was 0.198 ± 0.043 % ID/g and the “biodistribution, S. intestine” value ([1]; iv, 4 h) was 0.307 ± 0.077 % ID/g. For the same compound, the “biodistribution, Skin” value ([1]; iv, 4 h) was 0.563 ± 0.145 % ID/g, the “biodistribution, Spleen” value ([1]; iv, 4 h) was 0.279 ± 0.016 % ID/g and the “biodistribution, Stomach” value ([1]; iv, 4 h) was 0.300 ± 0.076 % ID/g. The “biodistribution, Tumor (4T1 tumoral uptake)” value ([1]; iv, 4 h) was 0.546 ± 0.075 % ID/g and the overall tumor uptake (tumor) was 1.36±0.43 % ID/g.
With `CC(C)C[C@@H](NC(=O)[C@@H](CC(C)C)NC(=O)[C@@H](CC(=O)O)NC(=O)[C@@H](CC(C)C)NC(=O)[C@@H](CC(C)C)NC(=O)[C@@H](CC(C)C)NC(=O)[C@H](NC(=O)[C@@H](CC(=O)O)NC(=O)[C@H](NC(=O)[C@H]1CCCN1C(=O)[C@@H](Cc1ccccc1)NC(=O)[C@@H](CC(C)C)NC(=O)[C@@H](CC(C)C)NC(=O)[C@@H](CC(=O)O)NC(=O)[C@@H](CC(C)C)NC(=O)[C@@H](Cc1ccc(O)cc1)NC(=O)[C@@H](C)NC(=O)[C@@H](CCCNC(=N)N)NC(=O)[C@@H](Cc1c[nH]c2ccccc12)NC(=O)[C@H]1CCCN1C(=O)[C@@H](CC(N)=O)NC(=O)[C@@H](CCC(N)=O)NC(=O)[C@@H](CC(=O)O)NC(=O)[C@@H](CC(=O)O)NC(=O)[C@@H](CSC1CC(=O)N(CCNC(=O)CN2CCN(CC(=O)O)CCN(CC(=O)O)CC2)C1=O)NC(=O)[C@@H](C)N)[C@H](C)O)[C@H](C)O)C(=O)N[C@H](Cc1c[nH]c2ccccc12)C(=O)O` (single isomer, unassigned) [^64Cu-NO2A-cysVar3, metal not drawn] the tissue uptake at 24 h (in vivo) was 19.2 ± 1.8 %ID/g, the “tumor:bone ratio” value [2] was 2.7±0.6 and the “tumor:muscle ratio” value [2] was 7.4±1.3. For the same compound, the “tumor:bone ratio” value [3] was 4.2±1.7 and the “tumor:muscle ratio” value [3] was 6±2.
